In the experiment the target is T1, PD1 (Programmed Death 1) (human, UniProt Q15116 25-288).
T1 construct: whole, on cells
The experiment can be described thus: flow cytometry on T cells electroporated with PD1 and minibody mRNA; biotinylated goat anti-human IgG1 and streptavidin-PE. An excerpt:
FIG. 8 is a panel of images and graphs showing detection of PD1 minibody or PD1-PDL1 bispecific minibody bound on T cells. T cells were electroporated with mRNA (PD1, PD1 and PD1 minibody, and PD1 and PD1-PDL1 bispecific minibody) as specified. The T cells were stained with biotinylated goat anti-human IgG1 and then streptavidin-PE. Biotin anti-human IgG1 specifically detected PD1 minibody or PD1-PDL1 bispecific minibody […] when the cells expressed PD1. PD1 expressed on the T cell acted as an anchor for the secreted antibodies to bind that would otherwise not interact with the T cell.
Flow Cytometry Analysis. Tumor cells were cultured in the absence or presence of IFN-γ (R&D systems, Minneapolis, Minn.) at 20 ng/m1 for 24 hrs before the cells were harvested for staining with PDL1-PE (BioLegend). Live cells were gated on the live cell population by forward scatter/side scatter (FSC/SSC) and then PDL-1 positivity by PE expression. K562 cells and K562 PDL1/CD19 cells were stained with PDL1-PE (BioLegend, San Diego, Calif.) and CD19-PacBlue (Life Technologies, Carlsbad, Calif.). […]
FIG. 8 is a panel of images and graphs showing detection of PD1 minibody or PD1-PDL1 bispecific minibody on T cells. […] Biotin anti-human IgG1 specifically detected PD1 minibody or PD1-PDL1 bispecific minibody when the cells expressed PD1. […]

T1 sequence (Q15116 25-288): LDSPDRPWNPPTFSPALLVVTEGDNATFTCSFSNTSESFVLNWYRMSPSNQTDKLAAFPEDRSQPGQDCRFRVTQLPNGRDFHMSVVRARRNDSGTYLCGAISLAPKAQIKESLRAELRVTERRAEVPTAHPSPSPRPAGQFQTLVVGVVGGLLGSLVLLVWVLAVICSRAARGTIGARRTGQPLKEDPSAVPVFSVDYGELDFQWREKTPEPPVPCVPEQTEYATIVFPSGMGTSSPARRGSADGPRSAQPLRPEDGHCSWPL

B1: PD1 minibody (other)
chain: QVQLQESGPGVVKPSGTLSLTCAISGGSIGSGGSIRSTRWWSWVRQSPGKGLEWIGEIYHSGSTNYNPSLKSRVTISLDKSRNHFSLRLNSVTAADTAVYYCARQDYGDSGDWYFDLWGKGTMVTVSSGGGSGGGSGGGSGGGSNFMLTQPHSVSESPGKTVTISCTRSSGSIASNSVQWYQQRPGSSPTTVIYEDNQRPSGVPDRFSGSIDSSSNSASLTVSGLKTEDEADYYCQSSDSSAVVFGSGTKLTVLEPKSCDKTHTCPPCGGGSSGGGSGGQPREPQVYTLPPSRDELTKNQVSLTCLVKGFYPSDIAVEWESNGQPENNYKTTPPVLDSDGSFFLYSKLTVDKSRWQQGNVFSCSVMHEALHNHYTQKSLSLSPGK
notes: Minibody: single chain VH-linker-VL-hinge-CH3, secreted by T cells electroporated with its mRNA; Variable regions are from PD1-17 of U.S. Pat. No. 7,488,802; also called PD1 minbody
As for B1, the binding result is “binds”.

Source of the values: patent US20200291354A1 (Novartis, published 2020).
